For assay [1], the target named is Recombinant wild-type phospholipid transfer protein (rPLTP) (human) (UniProt P55058). The experiment in a line: SPR; BIAcore 3000; rPLTP with C-terminal His-tag captured on anti-His tag monoclonal antibody immobilised on a CM5 chip; factor XII (0-750 nM) or factor XI injected; 50 mM Hepes, 150 mM NaCl, 5 mM CaCl2, pH 7.4; global fit, simple Langmuir model; apparent Kd. Background: SPR reads the build-up and loss of mass on a sensor chip optically.

In assay [2] the target is Human factor XII (human).
The target in assay [3] is Human factor XII (human). The source holds these as a separate data set.

As usually defined, the koff is a measure of how fast the partners let go of each other. By kon is commonly meant the second-order rate constant of association.

Human factor XII (natural protein): in assay [1], the Kd was found to be 190 nM, the koff worked out at 0.006 s⁻¹ and the kon was 31000 M⁻¹ s⁻¹.
Consider “Recombinant wild-type phospholipid transfer protein (rPLTP) (from UniProt P55058 18-493) (natural protein)”, for which the inhibition by rPLTP of sulfatide-induced kallikrein generation (contact activation) in plasma (S2302 amidolytic activity at 6 min) in the assay with Human factor XII (human) [2] came out at 0.69 µg/mL. In the assay with Human factor XII (human) [3], the inhibition by rPLTP of sulfatide-stimulated factor XII autoactivation in a purified system in the presence of VLDL (factor XIIa amidolytic activity, S2302, at 15 min) is 1.2 µg/mL.
